From the supplement of paper PMC9170038

Tested on: MS2 coat protein
Test: apparent KD of MS2 coat protein; higher = weaker reporter binding
Details: Eterna round: R107
In short: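 Designed RNA switches, transcribed on-chip from Illumina sequencing clusters, were titrated with SNAP-549-labelled MS2 coat protein from 0.7 or 1.5 nM to 3 µM in twofold steps. The solution was 100 mM Tris-HCl pH 7.5, 80 mM KCl, 4 mM MgCl2, with constant ligand or without it. Apparent KD is the median over each design's normalised cluster binding-curve fits.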

[1] = input ligand: theophylline 20 uM
[2] = input ligand: theophylline 2 mM
[3] = input ligand: tryptophan 2.4 mM

| Sequence | apparent KD of MS2 coat protein (input ligand: arginine 13.2 mM) | apparent KD of MS2 coat protein [1] | apparent KD of MS2 coat protein [2] | apparent KD of MS2 coat protein (input ligand: none) | apparent KD of MS2 coat protein [3] |
| --- | --- | --- | --- | --- | --- |
| GGACUCGUCACGGCCGCCACUGCGGUGGUGUGACAUGAGGAUCACCCAUGUUGUCAUGCGGCCCUUAGGACCGGGUGUCGCGUCC [#1 Exclusion - Tryptophan B Attempt #25 (HarryS)] | 0.0497 µM | 0.1 µM | 0.0938 µM |  |  |
| GGAUAGGACACGGCCGCCACUACCUAGGAUACUAGCAACAUUUGGGUGCACGAGGAUCACCCGUGUAGGACCGGGUGUCCUAUCG | 0.202 µM | 0.115 µM | 0.102 µM | 0.0725 µM | 0.291 µM |
| GGCACCAGGAGAAGGAGCGUGAAGACAUGAGGAUCACCCAUGUAGAGGCCCGUACUGGGUUCGCAGGUAGGUCGCUCCUGGUGCC [#1 Same State - Arginine B Attempt #13 (HarryS)] | 0.0221 µM | 0.0392 µM | 0.0287 µM | 0.0229 µM | 0.0299 µM |
| GGCUAGUGCAUCGAUACCAGCUACAUGAGGAUCACCCAUGUAGGAAGGGUGGUACUCGAUAGCCCUUGGCAGCGAACACCUCCGG [Quoran] | 0.0187 µM | 0.0357 µM |  |  | 0.0188 µM |
| GGGAGGGAGGCGGCCGCCACUGAUUUUCAUAUAUAUAUAACAUGAGGAUCACCCAUGUAGAUAUGCAGGACCGGGCCUUUUUUUU [aaaI] | 0.0213 µM | 0.0301 µM | 0.0191 µM |  |  |
| GGGAUAUAGGCGGCCGCCACUGAUUUUCAUAUAUAUAUAACAUGAGGAUCACCCAUGUAGAUAUACAGGACCGGGCCUAUAUUUU [aaaD] | 0.0148 µM | 0.0174 µM | 0.0211 µM | 0.0152 µM | 0.0135 µM |
| GGGCAAGAGGGAAGGAGCGUCAGCUGAGUCACAUGAGGAUCACCCAUGUAGCACAUAGUGUGACAGGUAGGUCGCCCUCUGCCCU [SS-ArgB5] | 0.0111 µM | 0.0144 µM | 0.0114 µM | 0.00919 µM | 0.0116 µM |
| GGGCGCUAUCCCGCGAGGGAUAGCGUUCGACGAGGACCGGUACGGCCGCCACUCGAACGAGUGGGUACAUGAGGAUCACCCAUGU [Gaa] | 0.0263 µM | 0.0509 µM | 0.0333 µM | 0.0335 µM | 0.0259 µM |
| GGGCGCUAUCCCGCGAGGGAUAGCGUUCGGCGAGGACCGGUACGGCCGCCACUCGAACGAGUGGGUACAUGAGGAUCACCCAUGU [Faa] | 0.0231 µM | 0.0396 µM | 0.0363 µM | 0.028 µM | 0.0306 µM |
| GGGUACAUCGCGGCCGCCACUCAUGUAAAUGCAUGAGGAUCACCCAUGCCGAUGGAGACAUCGGAGAGGACCGGGUGAUGUACCG | 0.0418 µM | 0.0687 µM | 0.0711 µM | 0.0458 µM | 0.0336 µM |
| GGGUCAGGCGCGGCCGCCACUGCGGUGAUGUGACAUGAGGAUCACCCAUGUUGUCAUGUGGCACAUAGGACCGGGCGCCUGGCCC [#1 Exclusion - Tryptophan B Attempt #7 (HarryS)] | 0.0254 µM | 0.0415 µM | 0.0332 µM |  |  |
| GGGUGGUAGGCGGCCGCCACUGAUUUUUAUUUAUAGAUGACAUGAGGAUCACCCAUGUAGAUAUGCAGGACCGGGCCUGUUGUUU [aaaO] | 0.0166 µM | 0.0223 µM | 0.0193 µM |  |  |
| GGUCUCUGGAGCGAUACCAGCUUAAGUGUACUGGCCAGGUACAUGAGGAUCACCCAUGUAAGCCCUUGGCAGCGCUCCAGAGACC [#1 Exclusion - Theophylline B Attempt #14 (HarryS)] | 0.0167 µM | 0.0161 µM | 0.0415 µM | 0.0104 µM | 0.0122 µM |
| GGUCUCUGGAGCGAUACCAGCUUGAGUGUACUGGCCAGGUACAUGAGGAUCACCCAUGUAAGCCCUUGGCAGCGCUCCAGAGACC [#1 Exclusion - Theophylline B Attempt #15 (HarryS)] | 0.00919 µM | 0.014 µM | 0.0447 µM | 0.00921 µM | 0.011 µM |
| GGUGGCGUGACGGAUACCAGCCACCACCGAUAGACCACAUGAGGAUCACCCAUGUUGGGUGGCCCUUGGCAGCUGUCGUGCGGCG [#1 Same State - Theophylline B Attempt #17 (HarryS)] | 0.082 µM | 0.409 µM |  |  | 0.22 µM |
| GGUUACUCUACGGCCGCCACUGAUUAAUUAUAAUCCUGUACAUAAACAUGAGGAUCACCCAUGUACAGGACCGGGUAGUGUAACC [Tryptophan B 10] | 0.0323 µM | 0.0462 µM | 0.0363 µM |  |  |
| GGUUGAAACUGAAGGAGCGAGAUCACAAGAUUGGGUCUAACAUGAGGAUCACCCAUGUAAUCUCAGGUAGGUCGCAGUGACCAAA [Exclusion Arginine B GF 13] | 0.028 µM | 0.0451 µM | 0.0517 µM | 0.0384 µM | 0.0381 µM |
| GUAAUUUUAAGAAGGAGCGUCGAAAAUGGGUAAACAUGAGGAUCACCCAUGUAAAGGGAACGACAGGUAGGUCGCUUAGGAUUAC [AstromonsSSArgB#23] | 0.113 µM | 0.235 µM | 0.22 µM | 0.191 µM | 0.198 µM |
| GUACACAUGAGGAUCACCCAUGUACUGGUACGAGGACCGGUACGGCCGCCACUCGCCGAGAUUCAUAACACAUCAGAAAGCUCAC [theeternabot_sameState_MS2_Trp_A_45] | 0.0135 µM | 0.0276 µM | 0.0188 µM |  |  |
| GUACAUGAGGAUCACCCAUGUAUAGUUGAAGGAGCGACCGGAGGGUCAGGUAGGUCGCAGCACAUGGCGUAAACCCGUGUAUGCC [#1 Exclusion - Arginine A Attempt #24 (Inspired by Pi)] | 0.0185 µM | 0.0327 µM | 0.0319 µM | 0.0217 µM | 0.023 µM |
